# ± gives the uncertainty stated by the source.
# B1: Friend leukemia integration 1 transcription factor, residues 116 to 197; numbered along this chain, Q01543 (parent)
# chain: NMTTNERRVIVPADPTLWTQEHVRQWLEWAIKEYSLMEIDTSFFQNMDGKELCKMNKEDFLRATTLYNTEVLLSHLSYLRES
# Variants of: B1
# Assay: abundance fitness (aPCA) (normalised: wild type 0, dead -1); higher = more abundant; growth selection in yeast, the domain comes from the species named
# Conditions: Homo sapiens
row,Variant,abundance fitness
1,NMTTNERRVIVPADPTLWTQEHVRQWLEWAIKEYSLMEIDTSFFQNMDGKELCKMNKEDFLRAPTLYNTEVLLSHLSYLRES,-0.704 ± 0.18
2,NMTTNERRVIVPADPTLWTQEHVRQWLEWAIKEYSLMEIDTSFFQNMDGKELCKMNKEDFLRAQTLYNTEVLLSHLSYLRES,-0.1 ± 0.083
3,NMTTNERRVIVPADPTLWTQEHVRQWLEWAIKEYSLMEIDTSFFQNMDGKELCKMNKEDFLRARTLYNTEVLLSHLSYLRES,-0.807 ± 0.075
4,NMTTNERRVIVPADPTLWTQEHVRQWLEWAIKEYSLMEIDTSFFQNMDGKELCKMNKEDFLRASTLYNTEVLLSHLSYLRES,-0.613 ± 0.16
5,NMTTNERRVIVPADPTLWTQEHVRQWLEWAIKEYSLMEIDTSFFQNMDGKELCKMNKEDFLRAWTLYNTEVLLSHLSYLRES,-0.537 ± 0.15
6,NMTTNERRVIVPADPTLWTQEHVRQWLEWAIKEYSLMEIDTSFFQNMDGKELCKMNKEDFLRATALYNTEVLLSHLSYLRES,-0.424 ± 0.11
7,NMTTNERRVIVPADPTLWTQEHVRQWLEWAIKEYSLMEIDTSFFQNMDGKELCKMNKEDFLRATCLYNTEVLLSHLSYLRES,-0.028 ± 0.12
8,NMTTNERRVIVPADPTLWTQEHVRQWLEWAIKEYSLMEIDTSFFQNMDGKELCKMNKEDFLRATDLYNTEVLLSHLSYLRES,-0.162 ± 0.14
9,NMTTNERRVIVPADPTLWTQEHVRQWLEWAIKEYSLMEIDTSFFQNMDGKELCKMNKEDFLRATFLYNTEVLLSHLSYLRES,-1.09 ± 0.37
10,NMTTNERRVIVPADPTLWTQEHVRQWLEWAIKEYSLMEIDTSFFQNMDGKELCKMNKEDFLRATGLYNTEVLLSHLSYLRES,-0.058 ± 0.058
11,NMTTNERRVIVPADPTLWTQEHVRQWLEWAIKEYSLMEIDTSFFQNMDGKELCKMNKEDFLRATHLYNTEVLLSHLSYLRES,-0.283 ± 0.26
12,NMTTNERRVIVPADPTLWTQEHVRQWLEWAIKEYSLMEIDTSFFQNMDGKELCKMNKEDFLRATILYNTEVLLSHLSYLRES,-0.908 ± 0.29
13,NMTTNERRVIVPADPTLWTQEHVRQWLEWAIKEYSLMEIDTSFFQNMDGKELCKMNKEDFLRATKLYNTEVLLSHLSYLRES,-0.47 ± 0.13
14,NMTTNERRVIVPADPTLWTQEHVRQWLEWAIKEYSLMEIDTSFFQNMDGKELCKMNKEDFLRATLLYNTEVLLSHLSYLRES,-0.615 ± 0.12
15,NMTTNERRVIVPADPTLWTQEHVRQWLEWAIKEYSLMEIDTSFFQNMDGKELCKMNKEDFLRATNLYNTEVLLSHLSYLRES,-0.042 ± 0.17
16,NMTTNERRVIVPADPTLWTQEHVRQWLEWAIKEYSLMEIDTSFFQNMDGKELCKMNKEDFLRATPLYNTEVLLSHLSYLRES,-0.085 ± 0.11
17,NMTTNERRVIVPADPTLWTQEHVRQWLEWAIKEYSLMEIDTSFFQNMDGKELCKMNKEDFLRATQLYNTEVLLSHLSYLRES,-0.235 ± 0.091
18,NMTTNERRVIVPADPTLWTQEHVRQWLEWAIKEYSLMEIDTSFFQNMDGKELCKMNKEDFLRATRLYNTEVLLSHLSYLRES,-0.372 ± 0.069
19,NMTTNERRVIVPADPTLWTQEHVRQWLEWAIKEYSLMEIDTSFFQNMDGKELCKMNKEDFLRATSLYNTEVLLSHLSYLRES,-0.011 ± 0.067
20,NMTTNERRVIVPADPTLWTQEHVRQWLEWAIKEYSLMEIDTSFFQNMDGKELCKMNKEDFLRATVLYNTEVLLSHLSYLRES,-0.966 ± 0.14
21,NMTTNERRVIVPADPTLWTQEHVRQWLEWAIKEYSLMEIDTSFFQNMDGKELCKMNKEDFLRATWLYNTEVLLSHLSYLRES,-1.03 ± 0.23
22,NMTTNERRVIVPADPTLWTQEHVRQWLEWAIKEYSLMEIDTSFFQNMDGKELCKMNKEDFLRATTAYNTEVLLSHLSYLRES,-0.021 ± 0.049
23,NMTTNERRVIVPADPTLWTQEHVRQWLEWAIKEYSLMEIDTSFFQNMDGKELCKMNKEDFLRATTCYNTEVLLSHLSYLRES,-0.039 ± 0.12

row,Variant,abundance fitness
1,NMTTNERRVIVPADPTLWTQEHVRQWLEWAIKEYSLMEIDTSFFQNMDGKELCKMNKEDFLRATTEYNTEVLLSHLSYLRES,0.016 ± 0.095
2,NMTTNERRVIVPADPTLWTQEHVRQWLEWAIKEYSLMEIDTSFFQNMDGKELCKMNKEDFLRATTFYNTEVLLSHLSYLRES,-0.574 ± 0.32
3,NMTTNERRVIVPADPTLWTQEHVRQWLEWAIKEYSLMEIDTSFFQNMDGKELCKMNKEDFLRATTGYNTEVLLSHLSYLRES,-0.108 ± 0.068
4,NMTTNERRVIVPADPTLWTQEHVRQWLEWAIKEYSLMEIDTSFFQNMDGKELCKMNKEDFLRATTHYNTEVLLSHLSYLRES,0.008 ± 0.11
5,NMTTNERRVIVPADPTLWTQEHVRQWLEWAIKEYSLMEIDTSFFQNMDGKELCKMNKEDFLRATTIYNTEVLLSHLSYLRES,0.085 ± 0.12
6,NMTTNERRVIVPADPTLWTQEHVRQWLEWAIKEYSLMEIDTSFFQNMDGKELCKMNKEDFLRATTKYNTEVLLSHLSYLRES,-0.038 ± 0.13
7,NMTTNERRVIVPADPTLWTQEHVRQWLEWAIKEYSLMEIDTSFFQNMDGKELCKMNKEDFLRATTPYNTEVLLSHLSYLRES,-0.015 ± 0.11
8,NMTTNERRVIVPADPTLWTQEHVRQWLEWAIKEYSLMEIDTSFFQNMDGKELCKMNKEDFLRATTQYNTEVLLSHLSYLRES,-0.066 ± 0.12
9,NMTTNERRVIVPADPTLWTQEHVRQWLEWAIKEYSLMEIDTSFFQNMDGKELCKMNKEDFLRATTSYNTEVLLSHLSYLRES,0.013 ± 0.074
10,NMTTNERRVIVPADPTLWTQEHVRQWLEWAIKEYSLMEIDTSFFQNMDGKELCKMNKEDFLRATTTYNTEVLLSHLSYLRES,-0.089 ± 0.14
11,NMTTNERRVIVPADPTLWTQEHVRQWLEWAIKEYSLMEIDTSFFQNMDGKELCKMNKEDFLRATTVYNTEVLLSHLSYLRES,0.045 ± 0.067
12,NMTTNERRVIVPADPTLWTQEHVRQWLEWAIKEYSLMEIDTSFFQNMDGKELCKMNKEDFLRATTWYNTEVLLSHLSYLRES,0.009 ± 0.087
13,NMTTNERRVIVPADPTLWTQEHVRQWLEWAIKEYSLMEIDTSFFQNMDGKELCKMNKEDFLRATTYYNTEVLLSHLSYLRES,-0.036 ± 0.11
14,NMTTNERRVIVPADPTLWTQEHVRQWLEWAIKEYSLMEIDTSFFQNMDGKELCKMNKEDFLRATTLANTEVLLSHLSYLRES,-0.051 ± 0.087
15,NMTTNERRVIVPADPTLWTQEHVRQWLEWAIKEYSLMEIDTSFFQNMDGKELCKMNKEDFLRATTLCNTEVLLSHLSYLRES,-0.058 ± 0.12
16,NMTTNERRVIVPADPTLWTQEHVRQWLEWAIKEYSLMEIDTSFFQNMDGKELCKMNKEDFLRATTLDNTEVLLSHLSYLRES,-0.027 ± 0.13
17,NMTTNERRVIVPADPTLWTQEHVRQWLEWAIKEYSLMEIDTSFFQNMDGKELCKMNKEDFLRATTLENTEVLLSHLSYLRES,0.212 ± 0.08
18,NMTTNERRVIVPADPTLWTQEHVRQWLEWAIKEYSLMEIDTSFFQNMDGKELCKMNKEDFLRATTLFNTEVLLSHLSYLRES,-0.219 ± 0.15
19,NMTTNERRVIVPADPTLWTQEHVRQWLEWAIKEYSLMEIDTSFFQNMDGKELCKMNKEDFLRATTLGNTEVLLSHLSYLRES,0.017 ± 0.1
20,NMTTNERRVIVPADPTLWTQEHVRQWLEWAIKEYSLMEIDTSFFQNMDGKELCKMNKEDFLRATTLHNTEVLLSHLSYLRES,0.085 ± 0.21
21,NMTTNERRVIVPADPTLWTQEHVRQWLEWAIKEYSLMEIDTSFFQNMDGKELCKMNKEDFLRATTLKNTEVLLSHLSYLRES,-0.045 ± 0.11
22,NMTTNERRVIVPADPTLWTQEHVRQWLEWAIKEYSLMEIDTSFFQNMDGKELCKMNKEDFLRATTLLNTEVLLSHLSYLRES,-0.125 ± 0.057
23,NMTTNERRVIVPADPTLWTQEHVRQWLEWAIKEYSLMEIDTSFFQNMDGKELCKMNKEDFLRATTLMNTEVLLSHLSYLRES,-0.111 ± 0.083

row,Variant,abundance fitness
1,NMTTNERRVIVPADPTLWTQEHVRQWLEWAIKEYSLMEIDTSFFQNMDGKELCKMNKEDFLRATTLNNTEVLLSHLSYLRES,-0.014 ± 0.23
2,NMTTNERRVIVPADPTLWTQEHVRQWLEWAIKEYSLMEIDTSFFQNMDGKELCKMNKEDFLRATTLPNTEVLLSHLSYLRES,-0.008 ± 0.11
3,NMTTNERRVIVPADPTLWTQEHVRQWLEWAIKEYSLMEIDTSFFQNMDGKELCKMNKEDFLRATTLQNTEVLLSHLSYLRES,0.059 ± 0.092
4,NMTTNERRVIVPADPTLWTQEHVRQWLEWAIKEYSLMEIDTSFFQNMDGKELCKMNKEDFLRATTLRNTEVLLSHLSYLRES,0.079 ± 0.061
5,NMTTNERRVIVPADPTLWTQEHVRQWLEWAIKEYSLMEIDTSFFQNMDGKELCKMNKEDFLRATTLSNTEVLLSHLSYLRES,0.074 ± 0.072
6,NMTTNERRVIVPADPTLWTQEHVRQWLEWAIKEYSLMEIDTSFFQNMDGKELCKMNKEDFLRATTLTNTEVLLSHLSYLRES,-0.006 ± 0.047
7,NMTTNERRVIVPADPTLWTQEHVRQWLEWAIKEYSLMEIDTSFFQNMDGKELCKMNKEDFLRATTLVNTEVLLSHLSYLRES,0.064 ± 0.078
8,NMTTNERRVIVPADPTLWTQEHVRQWLEWAIKEYSLMEIDTSFFQNMDGKELCKMNKEDFLRATTLWNTEVLLSHLSYLRES,-0.153 ± 0.092
9,NMTTNERRVIVPADPTLWTQEHVRQWLEWAIKEYSLMEIDTSFFQNMDGKELCKMNKEDFLRATTLYATEVLLSHLSYLRES,-0.233 ± 0.083
10,NMTTNERRVIVPADPTLWTQEHVRQWLEWAIKEYSLMEIDTSFFQNMDGKELCKMNKEDFLRATTLYCTEVLLSHLSYLRES,-0.292 ± 0.11
11,NMTTNERRVIVPADPTLWTQEHVRQWLEWAIKEYSLMEIDTSFFQNMDGKELCKMNKEDFLRATTLYDTEVLLSHLSYLRES,0.156 ± 0.25
12,NMTTNERRVIVPADPTLWTQEHVRQWLEWAIKEYSLMEIDTSFFQNMDGKELCKMNKEDFLRATTLYETEVLLSHLSYLRES,-0.022 ± 0.094
13,NMTTNERRVIVPADPTLWTQEHVRQWLEWAIKEYSLMEIDTSFFQNMDGKELCKMNKEDFLRATTLYFTEVLLSHLSYLRES,-1.02 ± 0.42
14,NMTTNERRVIVPADPTLWTQEHVRQWLEWAIKEYSLMEIDTSFFQNMDGKELCKMNKEDFLRATTLYGTEVLLSHLSYLRES,-0.125 ± 0.074
15,NMTTNERRVIVPADPTLWTQEHVRQWLEWAIKEYSLMEIDTSFFQNMDGKELCKMNKEDFLRATTLYKTEVLLSHLSYLRES,-0.898 ± 0.32
16,NMTTNERRVIVPADPTLWTQEHVRQWLEWAIKEYSLMEIDTSFFQNMDGKELCKMNKEDFLRATTLYLTEVLLSHLSYLRES,-0.859 ± 0.12
17,NMTTNERRVIVPADPTLWTQEHVRQWLEWAIKEYSLMEIDTSFFQNMDGKELCKMNKEDFLRATTLYQTEVLLSHLSYLRES,-0.167 ± 0.089
18,NMTTNERRVIVPADPTLWTQEHVRQWLEWAIKEYSLMEIDTSFFQNMDGKELCKMNKEDFLRATTLYRTEVLLSHLSYLRES,-0.547 ± 0.081
19,NMTTNERRVIVPADPTLWTQEHVRQWLEWAIKEYSLMEIDTSFFQNMDGKELCKMNKEDFLRATTLYSTEVLLSHLSYLRES,-0.083 ± 0.064
20,NMTTNERRVIVPADPTLWTQEHVRQWLEWAIKEYSLMEIDTSFFQNMDGKELCKMNKEDFLRATTLYTTEVLLSHLSYLRES,-0.146 ± 0.078
21,NMTTNERRVIVPADPTLWTQEHVRQWLEWAIKEYSLMEIDTSFFQNMDGKELCKMNKEDFLRATTLYVTEVLLSHLSYLRES,-0.376 ± 0.076
